{
  "source": "paper PMC9063327",
  "key": {"purified protein [1]": {"substrate": "CC(C)C(=O)C(=O)O", "assay": "purified protein", "format": "biochemical, Lactococcus lactis", "conditions": "50 mM potassium phosphate, 1 mM MgSO4, 0.5 mM thiamine pyrophosphate, 0.2 mM NADH; brackets are 95% CI"}, "purified protein [2]": {"substrate": "CC(=O)C(=O)O", "assay": "purified protein", "format": "biochemical, Lactococcus lactis", "conditions": "50 mM potassium phosphate, 1 mM MgSO4, 0.5 mM thiamine pyrophosphate, 0.2 mM NADH; brackets are 95% CI"}},
  "data": [
    {"protein": "KivD (Lactococcus lactis subsp. lactis) (protein, full length, pET28a, N-terminal His tag (kept), expressed in E. coli BL21(DE3), Ni-NTA purified; gene from pGEM-kivD) MYTVGDYLLDRLHELGIEEIFGVPGDYNLQFLDQIISHKDMKWVGNANELNASYMADGYARTKKAAAFLTTFGVGELSAVNGLAGSYAENLPVVEIVGSPTSKVQNEGKFVHHTLADGDFKHFMKMHEPVTAARTLLTAENATVEIDRVLSALLKERKPVYINLPVDVAAAKAEKPSLPLKKENSTSNTSDQEILNKIQESLKNAKKPIVITGHEIISFGLEKTVTQFISKTKLPITTLNFGKSSVDEALPSFLGIYNGTLSEPNLKEFVESADFILMLGVKLTDSSTGAFTHHLNENKMISLNIDEGKIFNERIQNFDFESLISSLLDLSEIEYKGKYIDKKQEDFVPSNALLSQDRLWQAVENLTQSNETIVAEQGTSFFGASSIFLKSKSHFIGQPLWGSIGYTFPAALGSQIADKESRHLLFIGDGSLQLTVQELGLAIREKINPICFIINNDGYTVEREIHGPNQSYNDIPMWNYSKLPESFGATEDRVVSKIVRTENEFVSVMKEAQADPNRMYWIELILAKEGAPKVLKKMGKLFAEQNKS", "values": [
      {"measurement": "Km", "setting": "purified protein [1]", "value": "4.18 (4.08, 4.23) mM"},
      {"measurement": "Vmax", "setting": "purified protein [1]", "value": "0.0409 (0.038, 0.044)"},
      {"measurement": "kcat", "setting": "purified protein [1]", "value": 3.46, "unit": "s⁻¹"},
      {"measurement": "kcat/Km", "setting": "purified protein [1]", "value": 828, "unit": "M⁻¹ s⁻¹"},
      {"measurement": "Km", "setting": "purified protein [2]", "value": "18.81 (17.15, 20.85) mM"},
      {"measurement": "Vmax", "setting": "purified protein [2]", "value": "0.0034 (0.0029, 0.0039)"},
      {"measurement": "kcat", "setting": "purified protein [2]", "value": 0.28, "unit": "s⁻¹"},
      {"measurement": "kcat/Km", "setting": "purified protein [2]", "value": 15.1, "unit": "M⁻¹ s⁻¹"}
    ]}
  ]
}
